T1: soluble GFRα-1 IgG1-Fc fusion protein (GFRα-1 amino acids 27 to 427 fused to human IgG1-Fc, from CHO cells) (human, UniProt P56159 27-427)
T1 construct: range 27-427; The 17 amino acid CD33 signal peptide of the vector is left out; also called GFRα1-Fc; not shown: 243 amino acid COOH-terminal human IgG1-Fc fusion domain of vector Signal pIg plus (R&D Systems); Its exact limits and a
T1 sequence (looked up): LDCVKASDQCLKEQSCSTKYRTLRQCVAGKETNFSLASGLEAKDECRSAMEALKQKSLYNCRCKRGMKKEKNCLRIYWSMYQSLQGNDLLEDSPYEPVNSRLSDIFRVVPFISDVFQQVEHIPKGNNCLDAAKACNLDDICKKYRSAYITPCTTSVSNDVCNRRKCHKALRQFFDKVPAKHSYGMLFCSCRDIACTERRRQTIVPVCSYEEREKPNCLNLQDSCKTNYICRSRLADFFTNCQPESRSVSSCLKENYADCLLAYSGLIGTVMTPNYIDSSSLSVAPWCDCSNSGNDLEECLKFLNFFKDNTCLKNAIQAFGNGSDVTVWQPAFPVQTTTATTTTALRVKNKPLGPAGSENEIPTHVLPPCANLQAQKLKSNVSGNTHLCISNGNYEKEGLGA

T2: soluble GFRα-2 IgG1-Fc fusion protein (GFRα-2 amino acids 20 to 431 fused to human IgG1-Fc, from CHO cells) (human, UniProt O00451 20-431)
T2 construct: range 20-431; The 17 amino acid CD33 signal peptide of the vector is left out; also called GFRα2-Fc; not shown: 243 amino acid COOH-terminal human IgG1-Fc fusion domain of vector Signal pIg plus (R&D Systems); Its exact limits and a
T2 sequence (looked up): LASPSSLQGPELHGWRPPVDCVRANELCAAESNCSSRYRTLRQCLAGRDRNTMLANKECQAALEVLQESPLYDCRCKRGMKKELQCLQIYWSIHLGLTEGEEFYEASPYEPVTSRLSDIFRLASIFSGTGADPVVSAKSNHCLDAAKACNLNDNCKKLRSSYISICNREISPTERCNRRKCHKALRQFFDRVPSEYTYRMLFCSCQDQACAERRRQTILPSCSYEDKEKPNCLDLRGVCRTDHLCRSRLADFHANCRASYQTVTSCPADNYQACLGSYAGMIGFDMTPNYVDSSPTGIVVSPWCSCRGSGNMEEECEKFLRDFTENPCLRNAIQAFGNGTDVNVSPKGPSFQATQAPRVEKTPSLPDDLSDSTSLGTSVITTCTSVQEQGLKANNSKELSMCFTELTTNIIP


Legend:
[1] = target: T1, soluble GFRα-1 IgG1-Fc fusion protein …; assay: SPR (BIAcore 3000), enovin immobilized, soluble GFRα-Fc in flow
Method: (§1) Surface plasmon resonance (SPR) experiments were performed at 25° C. using a BIAcore 3000 instrument. Analyses were performed with enovin and NGF as immobilized ligands. The carboxylated matrix of a Fl sensor chip was first activated with a 1:1 mixture of 400 mM N-ethyl-N-(dimethylaminopropyl)-carbodiimide and 100 mM N-hydroxy-succinimide for 10 min. Than, recombinant enovin and NGF were applied onto the activated surface in […] acetate buffer, pH 4.5 at a flow rate of 5 μl/min. Unoccupied reactive groups were inactivated with 1 M ethanolamine hydrochloride. For binding experiments, soluble GFRα1-3-Fc were superfused at concentrations of 10-100 nM in HEPES buffered saline (150 mM NaCl, 3.5 mM EDTA, 0.05% P-20, 10 mM HEPES, pH 7.4) at a flow rate of 10 μl/min. The association was monitored for 3 min and dissociation for 1 min, followed by regeneration with 5 mM NaOH. Dissociation was initiated by superfusion with HEPES buffered saline. A BIAcore evaluation software, 3.0 was used to calculate the association rate (kₐ), dissociation rate (kd) and the equilibrium dissociation constants (KD calculated as kd/Kₐ).

[2] = target: T2, soluble GFRα-2 IgG1-Fc fusion protein …; assay: as above
Method: as §1

[3] = target: recombinant enovin (6xHis-tagged mature human Enovin expressed from plasmid hEVNmat/pRSETB in E. coli BL21(DE3), refolded) (human); assay: SPR (BIAcore 3000, 25 C), enovin immobilized, soluble GFRα3-Fc in flow at three concentrations
[4] = target: recombinant enovin (6xHis-tagged mature human Enovin expressed from plasmid hEVNmat/pRSETB in E. coli BL21(DE3), refolded) (human); assay: SPR (BIAcore 3000, 25 C), enovin immobilized, soluble GFRα3-Fc in flow; KD calculated as kd/ka

binding result [1]	binding result [2]	koff [3]	kon [3]	Kd [4]	Binder
no binding (tested: 10-100 nM)	no binding (tested: 10-100 nM)	–	–	–	recombinant enovin (6xHis-tagged mature human Enovin expressed from plasmid hEVNmat/pRSETB in E. coli BL21(DE3), refolded) (ligand, The construct codes for a 146 amino acid protein: 33 leader and tag residues plus 113 residues of mature enovin; also called immobilized enovin) MRGSHHHHHHGMASMTGGQQMGRDLYDDDDKDPAGGPGSRARAAGARGCRLRSQLVPVRALGLGHRSDELVRFRFCSGSCRRARSPHDLSLASLLGAGALRPPPGSRPVSQPCCRPTRYEAVSFMDVNSTWRTVDRLSATACGCLG
–	–	0.000508 s⁻¹	165000 M⁻¹ s⁻¹	3.1 nM	soluble GFRα-3 IgG1-Fc fusion protein (GFRα-3 amino acids 28 to 371 fused to human IgG1-Fc, from CHO cells) (Fc fusion, UniProt O60609 28-371, looked up, not shown: a dimerising Fc or GST) LAAGDPLPTESRLMNSCLQARRKCQADPTCSAAYHHLDSCTSSISTPLPSEEPSVPADCLEAAQQLRNSSLIGCMCHRRMKNQVACLDIYWTVHRARSLGNYELDVSPYEDTVTSKPWKMNLSKLNMLKPDSDLCLKFAMLCTLNDKCDRLRKAYGEACSGPHCQRHVCLRQLLTFFEKAAEPHAQGLLLCPCAPNDRGCGERRRNTIAPNCALPPVAPNCLELRRLCFSDPLCRSRLVDFQTHCHPMDILGTCATEQSRCLRAYLGLIGTAMTPNFVSNVNTSVALSCTCRGSGNLQEECEMLEGFFSHNPCLTEAIAAKMRFHSQLFSQDWPHPTFAVMAHQ

Source: US20110201552A1 (Janssen / Centocor, published 2011)
